From publication PMC3886899 (Nature, 2013) come the findings set out here.

In the test the target is SAMHD1(26-626) (human, UniProt Q9Y3Z3 26-626). Nature of the test: SEC. Background: SEC sorts molecules by how far they enter the pores of the column.
Chain of SAMHD1(26-626) (Q9Y3Z3 26-626): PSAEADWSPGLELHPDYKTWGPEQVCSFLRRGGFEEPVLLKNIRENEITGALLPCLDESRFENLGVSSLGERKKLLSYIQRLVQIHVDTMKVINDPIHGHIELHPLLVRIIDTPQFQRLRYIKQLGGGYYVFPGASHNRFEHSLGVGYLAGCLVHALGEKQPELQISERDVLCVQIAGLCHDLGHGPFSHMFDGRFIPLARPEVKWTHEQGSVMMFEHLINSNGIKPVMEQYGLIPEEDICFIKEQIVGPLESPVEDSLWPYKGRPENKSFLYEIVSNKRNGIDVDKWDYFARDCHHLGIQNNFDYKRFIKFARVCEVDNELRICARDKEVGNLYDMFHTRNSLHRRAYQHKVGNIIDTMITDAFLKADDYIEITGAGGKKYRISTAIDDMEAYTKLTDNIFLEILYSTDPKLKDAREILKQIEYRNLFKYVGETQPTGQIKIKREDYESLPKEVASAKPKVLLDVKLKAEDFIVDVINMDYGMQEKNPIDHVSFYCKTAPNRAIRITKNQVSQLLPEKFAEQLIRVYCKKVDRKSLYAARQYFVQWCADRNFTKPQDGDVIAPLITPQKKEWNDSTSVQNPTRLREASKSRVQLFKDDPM

B1: Vpxsm/DCAF1-CtD (complex)
chain 1: MSDPRERIPPGNSGEETIGEAFDWLDRTVEEINRAAVNHLPRELIFQVWRRSWEYWHDEMGMSVSYTKYRYLCLIQKAMFMHCKKGCRCLGGEHGAGGWRPGPPPPPPPGLA
chain 2: not shown
Consider B1, for which the binding result was “binds”.
